Biological target: glycosylphosphatidylinositol-anchored avidin test probe (avidin/CD14 fusion) (chicken | human) (UniProt P02701)

- stoichiometry N: 4
Substance: glycosylphosphatidylinositol-anchored avidin test probe (avidin/CD14 fusion) (from UniProt P02701 25-152; P08571 318-375)

— publication PMC2766537
